Assay results: patent publication US20100041597A1, “PEPTIDES TARGETED TO PROTEIN KINASE C ISOFORMS AND USES THEREOF” (priority 2005, published 2010)
Values joined by “and” are separate entries in the source; they are usually repeats but may differ in a detail not shown here. Equal values may be shown once. Blank lines part the entries; values can stand above or below the substance they belong to.

Legend:
[1] = molecular target: PKC-βII (endogenous, human cell extracts) (human) (UniProt P05771); experiment: Western blot Protocol B, IMR-32 extract, no peptide
Sequence of PKC-βII (endogenous, human cell extracts) (human) (P05771 other isoform, or with tags, fused parts or gaps limits assumed): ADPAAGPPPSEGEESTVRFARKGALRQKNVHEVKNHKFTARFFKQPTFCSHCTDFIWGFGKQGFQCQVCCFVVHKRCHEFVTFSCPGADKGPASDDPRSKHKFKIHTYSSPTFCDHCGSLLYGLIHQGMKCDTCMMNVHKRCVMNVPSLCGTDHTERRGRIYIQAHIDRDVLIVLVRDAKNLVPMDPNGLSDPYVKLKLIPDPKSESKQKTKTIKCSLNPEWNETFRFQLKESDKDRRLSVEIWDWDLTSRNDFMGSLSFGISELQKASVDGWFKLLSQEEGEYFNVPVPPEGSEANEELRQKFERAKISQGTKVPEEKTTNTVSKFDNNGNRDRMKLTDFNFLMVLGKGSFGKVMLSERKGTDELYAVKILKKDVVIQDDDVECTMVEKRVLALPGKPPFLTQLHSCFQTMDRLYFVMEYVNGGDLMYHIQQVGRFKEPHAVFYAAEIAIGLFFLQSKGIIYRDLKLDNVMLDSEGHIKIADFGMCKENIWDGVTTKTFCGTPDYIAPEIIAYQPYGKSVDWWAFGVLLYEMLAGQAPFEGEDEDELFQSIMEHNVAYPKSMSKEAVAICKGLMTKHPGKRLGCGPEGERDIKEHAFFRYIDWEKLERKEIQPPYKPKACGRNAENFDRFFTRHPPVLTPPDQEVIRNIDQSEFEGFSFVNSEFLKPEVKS

[2] = molecular target: PKC-ε (endogenous, human cell extracts) (human) (UniProt Q02156); experiment: Western blot Protocol B, IMR-32 extract, Band 2, no peptide
Sequence of PKC-ε (endogenous, human cell extracts) (human) (Q02156 whole entry): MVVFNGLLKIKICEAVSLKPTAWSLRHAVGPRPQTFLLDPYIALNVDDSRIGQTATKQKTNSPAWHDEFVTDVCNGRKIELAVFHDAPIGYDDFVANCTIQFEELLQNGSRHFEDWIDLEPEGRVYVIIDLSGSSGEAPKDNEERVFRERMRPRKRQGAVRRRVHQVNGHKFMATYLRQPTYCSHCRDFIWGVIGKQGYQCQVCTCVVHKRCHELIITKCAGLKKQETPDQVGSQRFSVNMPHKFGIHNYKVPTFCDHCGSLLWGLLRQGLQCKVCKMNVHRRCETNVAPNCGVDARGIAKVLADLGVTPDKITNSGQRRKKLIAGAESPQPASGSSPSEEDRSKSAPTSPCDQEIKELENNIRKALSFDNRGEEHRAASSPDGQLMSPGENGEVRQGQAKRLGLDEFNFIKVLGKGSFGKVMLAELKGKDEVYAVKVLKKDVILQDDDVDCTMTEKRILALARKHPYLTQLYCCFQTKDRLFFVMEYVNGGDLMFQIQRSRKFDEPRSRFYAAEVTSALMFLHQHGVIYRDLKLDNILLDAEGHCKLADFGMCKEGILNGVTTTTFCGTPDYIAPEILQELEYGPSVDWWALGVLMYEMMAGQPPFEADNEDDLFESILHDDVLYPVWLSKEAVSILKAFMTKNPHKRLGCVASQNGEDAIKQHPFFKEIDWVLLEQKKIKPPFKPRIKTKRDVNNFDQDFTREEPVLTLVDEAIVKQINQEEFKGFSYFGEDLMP

[3] = molecular target: PKC-ε (endogenous, human cell extracts) (human) (UniProt Q02156); experiment: Western blot Protocol B, IMR-32 extract, Band 1, no peptide
[4] = molecular target: PKC-βI (endogenous, human cell extracts) (human) (UniProt P05771); experiment: Western blot Protocol B, IMR-32 extract, no peptide
Sequence of PKC-βI (endogenous, human cell extracts) (human) (P05771 2-671): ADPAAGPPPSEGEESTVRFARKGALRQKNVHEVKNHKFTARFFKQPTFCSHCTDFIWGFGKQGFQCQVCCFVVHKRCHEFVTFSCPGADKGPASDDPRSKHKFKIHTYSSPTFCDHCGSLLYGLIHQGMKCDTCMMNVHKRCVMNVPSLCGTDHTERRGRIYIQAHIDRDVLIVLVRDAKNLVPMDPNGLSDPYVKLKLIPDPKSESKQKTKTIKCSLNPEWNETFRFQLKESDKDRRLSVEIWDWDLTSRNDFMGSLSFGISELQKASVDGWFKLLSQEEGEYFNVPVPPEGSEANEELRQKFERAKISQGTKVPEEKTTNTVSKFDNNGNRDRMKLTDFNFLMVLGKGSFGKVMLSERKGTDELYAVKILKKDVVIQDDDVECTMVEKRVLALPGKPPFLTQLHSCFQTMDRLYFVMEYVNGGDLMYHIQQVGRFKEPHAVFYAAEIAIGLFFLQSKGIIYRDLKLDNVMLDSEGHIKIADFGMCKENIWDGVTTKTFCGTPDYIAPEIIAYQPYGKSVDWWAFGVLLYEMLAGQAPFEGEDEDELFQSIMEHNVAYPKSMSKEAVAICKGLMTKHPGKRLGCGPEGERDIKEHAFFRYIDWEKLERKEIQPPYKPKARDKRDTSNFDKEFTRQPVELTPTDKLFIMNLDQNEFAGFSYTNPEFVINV

band intensity [1]: 98.6
Substance: anti-PKC βII antibody (Cat. No. SC-210, Santa Cruz Biotechnology, Inc.)

band intensity [2]: 261 and 281 and 286 | band intensity [3]: 421 and 420 and 323
Substance: anti-PKC ε antibody (Cat. No. SC-214, Santa Cruz Biotechnology, Inc.)

band intensity [4]: 170
Substance: anti-PKC βI antibody (Cat. No. SC-209, Santa Cruz Biotechnology, Inc.)
